Laboratory results from article PMC6479064.

How the values were obtained:
[1] = target: C. reinhardtii axonemal tubulin purified from the combined cyc1-cyc5 fractions (CP/B tubulin) (C. reinhardtii); assay: dynamic microtubule assay by interference reflection microscopy (IRM); label-free; tubulin at different concentrations in BRB80 with oxygen scavengers, 0.1 mg/ml casein, 1 mM dithiothreitol and 1 mM GTP, 28 °C; extensions grown from TAMRA-labeled GMPCPP-stabilized bovine brain MT seeds held on the coverslip by anti-TAMRA antibodies; constants from linear regression of growth rate against tubulin concentration; tubulin dimer onto the microtubule end
[2] = target: C. reinhardtii axonemal tubulin purified from the combined cyc1-cyc5 fractions (CP/B tubulin) (C. reinhardtii); assay: dynamic microtubule assay by IRM with mean-squared displacement (MSD) analysis; MT ends tracked with FIESTA; quadratic fit to the first 15 s of MSD against time; estimated rate constants of tubulin dimer binding and unbinding at the growing end

Substance: C. reinhardtii axonemal tubulin purified from the combined cyc1-cyc5 fractions (CP/B tubulin) (complex)
- koff, minus end [1]: 1.16 s⁻¹
- koff, plus end [1]: 0.785 s⁻¹
- kon, minus end [1]: 430000 M⁻¹ s⁻¹
- kon, plus end [1]: 540000 M⁻¹ s⁻¹
- x-intercept (extrapolated tubulin concentration for growth), minus end [1]: 2.58 µM
- x-intercept (extrapolated tubulin concentration for growth), plus end [1]: 1.35 µM
- koff, minus end (MSD analysis) [2]: 228 s⁻¹
- koff, plus end (MSD analysis) [2]: 341 s⁻¹
- kon, minus end (MSD analysis) [2]: 2.6e+07 M⁻¹ s⁻¹
- kon, plus end (MSD analysis) [2]: 3.86e+07 M⁻¹ s⁻¹
- kon[Tub], minus end (MSD analysis) [2]: 234 s⁻¹
- kon[Tub], plus end (MSD analysis) [2]: 348 s⁻¹
